Data on 19 molecules can be found in patent publication US7097988B1 (ADVANCED RESEARCH AND TECHNOLOGY INSTITUTE, dated 2006).

Where two headings read alike, the source gives them in different places. Ends that are not written are not given here. Bounds are passed on as bounds.

Test [1] addresses T1, human μ opioid receptor coupled to G protein-activated K+ channel (Homo sapiens, UniProt P35372).
T1 construct: Messenger RNAs encoding both proteins (Chen and Yu, 1994) were generated by in vitro transcription and injected into Xenopus oocytes; expressed in transfected cells; host or cells: Xenopus laevis oocytes (mRNA injection)
Format: cell-based.

Test [2] has as its target T2, rat μ opioid receptor coupled to G protein-activated K+ channel (Rattus norvegicus, UniProt P33535, V245I).
T2 construct: A cDNA clone, MOR-1, containing the protein coding region of a rat μ opioid receptor has been described; expressed in transfected cells; host or cells: Xenopus oocytes (mRNA injection)
Format: cell-based.

For test [3], the target named is T3, rat μ-opioid receptor MOR-1 (Rattus norvegicus, UniProt P33535, V245I).
T3 construct: A 1.4-kilobase HindIII fragment encompassing the open reading frame from the cDNA encoding MOR-1 was cloned; expressed in transfected cells; host or cells: COS-7
In words: biochemical. It is filed as binding.

The target of test [4] is T4, novel member of the opioid receptor gene family (SEQ ID NO: 17) (Rattus norvegicus, UniProt P35370).
T4 construct: mRNA of this clone was synthesized by in vitro transcription and coinjected into Xenopus oocytes; expressed in transfected cells; host or cells: Xenopus oocytes (mRNA injection)
T4 sequence (P35370 whole entry): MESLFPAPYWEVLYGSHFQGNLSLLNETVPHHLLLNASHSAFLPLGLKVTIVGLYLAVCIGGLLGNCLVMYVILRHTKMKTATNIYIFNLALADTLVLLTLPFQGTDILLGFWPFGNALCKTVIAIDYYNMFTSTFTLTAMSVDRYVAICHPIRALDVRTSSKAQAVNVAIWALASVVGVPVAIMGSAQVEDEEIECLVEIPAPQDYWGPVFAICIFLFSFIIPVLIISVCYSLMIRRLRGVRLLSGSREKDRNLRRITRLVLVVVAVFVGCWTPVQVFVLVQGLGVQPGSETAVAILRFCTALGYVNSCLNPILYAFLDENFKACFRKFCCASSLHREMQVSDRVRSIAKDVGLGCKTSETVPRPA
It is filed as cell-based.

In a further test the target is T5, rat μ opioid receptor (Rattus norvegicus, UniProt P33535, V245I).
T5 construct: A plasmid containing a 1.4 kb cDNA for the rat μ opioid receptor in a mammalian expression vector pRc/CMV has been described; expressed in transfected cells
It is filed as binding.

Test [5] deals with T6, human μ receptor (adenylyl cyclase) (Homo sapiens, UniProt P35372).
T6 construct: the cDNA containing the open reading frame of the receptor was cloned downstream of the human cytomegalovirus promoter in the mammalian expression vector pcDNA3; expressed in transfected cells; host or cells: COS-7 (transient)
It is filed as cell-based.

Test [6] deals with T7, cloned human μ opioid receptor (Homo sapiens, UniProt P35372).
T7 construct: the cDNA containing the open reading frame of the receptor was cloned downstream of the human cytomegalovirus promoter in the mammalian expression vector pcDNA3; expressed in transfected cells; host or cells: COS-7 (transient)
Conditions: read-out: Binding potencies (Ki-nM), human μ receptor, [3H]DAMGO.

The target of test [7] is T8, cloned human mu opioid receptor (human, UniProt P35372 1-400).
T8 construct: Full-length receptor expressed from pcDNA3 in COS-7 cells (membranes) or from mRNA in Xenopus oocytes; also called human µ opioid receptor; human µ receptor
In words: inhibition of 2 nM [3H]DAMGO binding; membranes of COS-7 cells expressing the human µ receptor.

In test [8] the target is human μ opioid receptor hμOR1 (Homo sapiens, UniProt P35372, D51N).
Another test addresses Mu1 site. As to conditions: Clark et al., 1988; cited from earlier work.
The target in the next test is Mu2 site. Conditions: Clark et al., 1988; cited from earlier work.
The target in test [9] is μ opioid receptor (PL-17 sites), guinea pig brain membranes. As to conditions: read-out: affinity (displacement of radiolabeled PL-17); Kawasaki et al., 1990; cited from earlier work.
The target in test [10] is mu opioid receptor (DAMGO sites). As to conditions: read-out: affinity (displacement of radiolabeled DAMGO); Vaughn and Taylor, 1989; cited from earlier work.
In test [11] the target is T9, rat mu opioid receptor MOR-1 (rat, UniProt P33535 1-398).
T9 construct: Full-length receptor expressed from the cDNA in COS-7 cells (membranes), stably in CHO cells (membranes, whole cells) or in Xenopus oocytes; also called rat µ-opioid receptor; cloned rat µ receptor
In words: cell-based or functional assay.

The target of test [12] is T9, rat mu opioid receptor MOR-1. In words: saturation binding; membranes of stably transfected CHO cells.
For test [13] the target is unchanged. In words: [3H]DAMGO binding to COS-7 membranes with 100 mM GTPgS in the assay.
Test [14] concerns the target T8, cloned human mu opioid receptor. The test is described as above.
The target in test [15] is T9, rat mu opioid receptor MOR-1. In words: saturation binding of [3H]DAMGO; membranes of stably transfected CHO cells.
The target in test [16] is T8, cloned human mu opioid receptor. In words: saturation binding; membranes of COS-7 cells expressing the human µ receptor.
The target in test [17] is T9, rat mu opioid receptor MOR-1. In words: [3H]DAMGO binding to membranes of COS-7 cells pretreated with pertussis toxin.
In test [18] the target is T8, cloned human mu opioid receptor. The description is as above.
Test [19] concerns the target T9, rat mu opioid receptor MOR-1. In words: displacement of 0.25 nM [3H]diprenorphine; membranes of COS-7 cells expressing MOR-1.
In test [20] the target is T8, cloned human mu opioid receptor. In words: saturation binding, Scatchard analysis; membranes of COS-7 cells expressing the human µ receptor.
Test [21] deals with T9, rat mu opioid receptor MOR-1. In words: whole-oocyte binding of 1 nM ^3H-DAMGO; oocytes injected with mRNAs for the µ receptor and the K^+ channel.
Test [22] addresses T8, cloned human mu opioid receptor. In words: displacement of […] [3H]DAMGO; membranes of COS-7 cells expressing the human µ receptor.
Test [23] has as its target T9, rat mu opioid receptor MOR-1. In words: inhibition of [3H]DAMGO binding; membranes of COS-7 cells expressing the rat µ receptor.

On to `CC1=C[C@H]2[C@@]3(O)[C@H](C)[C@@H](O)[C@]4(O)[C@H]([C@@H]3C=C(CO)C[C@@]2(O)C1=O)C4(C)C` [4α-phorbol], for which the “second DAMGO response relative to the first (peak current)” value in [1] was determined as 87%+2%.

Consider `Nc1ncnc2c1nc(Sc1ccc(Cl)cc1)n2[C@@H]1O[C@@H]2COP(=O)(O)O[C@H]2[C@H]1O` [8-CPT-cAMP, 8-chlorophenylthio-cAMP], for which, in [2], the “effect of kinase modulators on desensitization (in words)” value is reported as “completely abolished the desensitization”.

Take `COc1cccc2c1[C@]13CCN(CC4CC4)[C@H](C2)[C@]1(OC)CCC(=O)C3` [Cyprodime]: in test [3], the Ki is 9.1 ± 2.8 nM and the “Ki values (in words)” value was “nanomolar range”.

Turning to `CC1(C)SSC(C)(C)[C@@H](NC(=O)[C@@H](N)Cc2ccc(O)cc2)C(=O)NCC(=O)N[C@@H](Cc2ccccc2)C(=O)N[C@H]1C(=O)O` [DPDPE, [D-Pen^2.5]-enkephalin], the “induction of potassium conductance (in words)” value in test [4] is “no potassium conductance was induced”.

With `CC(C)C[C@H](NC(=O)[C@H](Cc1ccccc1)NC(=O)CNC(=O)[C@@H](CO)NC(=O)[C@@H](N)Cc1ccc(O)cc1)C(=O)N[C@H](C(=O)O)[C@@H](C)O` [DSLET, [D-Ser, Leu^5, Thr^6]-enkephalin], the Ki in test [3] was 314 nM.

Regarding `Nc1nc2c(ncn2[C@@H]2O[C@H](COP(=O)(O)OP(=O)(O)OP(=O)(O)O)[C@@H](O)[C@H]2O)c(=O)[nH]1` [GTP], the “effect on specific [3H]DAMGO binding (in words)” value on rat μ opioid receptor is “decrease the specific binding”.

`Nc1nc2c(ncn2[C@@H]2O[C@H](COP(=O)(O)OP(=O)(O)NP(=O)(O)O)[C@@H](O)[C@H]2O)c(=O)[nH]1` [Gp(NH)pp]: the “effect on specific [3H]DAMGO binding (in words)” value at rat μ opioid receptor was “decrease the specific binding”.

In the case of `CCCCCCCCCCCCCC(=O)O[C@@H]1[C@@H](C)[C@@]2(O)[C@@H](C=C(CO)C[C@]3(O)C(=O)C(C)=C[C@@H]23)[C@@H]2C(C)(C)[C@]12OC(C)=O` [PMA, phorbol 12-myristate 13-acetate], the “second DAMGO response relative to the first (peak current)” value in test [1] is given as 29%+7%. For the same molecule, the “effect of kinase modulators on desensitization (in words)” value in test [2] is “further reduced the second response”.

For `CN1CC[C@]23CCCC[C@H]2[C@H]1Cc1ccc(O)cc13` [levorphanol], the “effect on forskolin-stimulated cAMP accumulation (in words)” value in [5] is reported as “decreased cAMP accumulation”.

For `COC(=O)/C=C/C(=O)N[C@@H]1CC[C@@]2(O)[C@H]3Cc4ccc(O)c5c4[C@@]2(CCN3CC2CC2)[C@H]1O5` [β-funaltrexamine], the “Ki values (in words)” value in [3] is reported as “nanomolar range”. In addition, the results for the Ki in test [3] (read-out: Ki values) and in test [6] were 1.3 ± 0.1 nM and 0.29 nM, respectively.

“CTOP, D-Phe-Cys-Tyr-D-Trp-Orn-Thr-Pen-Thr-NH2 (peptide)” came in with a Ki in test [7] of 3.9 nM.

For Dynorphin A, the “difference in Ki between the inventor's clone and the clone of Wang et al.” value in test [8] was “over 100 fold”. The Ki is 0.7 nM on Mu1 site, 2.2 nM on Mu2 site, 5 nM in test [9] and 3 nM in test [10].

Turning to “GGFMTSEKSQTPLVTLFKNAIIKNAYKKGE [des-Tyr^1-β-endorphin]”, the Ki in test [6] is above 1000 nM.

Leu-enkephalin: the “effect on forskolin-stimulated cAMP accumulation (in words)” value in [5] is listed as “significantly reduced”.

In the case of “[D-Ala^2, N-Me-Phe^4, Gly-ol^5]-enkephalin (peptide)”, in [11], the DAMGO/control (cAMP with forskolin plus DAMGO over forskolin only), morphine-treated cells came to 42.4%; the DAMGO/control (cAMP with forskolin plus DAMGO over forskolin only), naive cells was 71.9%; the EC50 of inhibition of forskolin-stimulated intracellular cAMP, naive transfected CHO cells is 30 nM; the GTPase activity of G proteins, stably transfected CHO cells, 10 µM DAMGO is 30%. In [11], the barium current through a voltage-activated calcium channel, Xenopus oocytes with the channel and the mu opioid receptor, 1 µM DAMGO is above 80 % reduction; the intracellular cAMP level after forskolin, COS-7 cells expressing MOR-1, 100 nM DAGO was 18.1 % reduction; the intracellular cAMP level, Forskolin + DAMGO (1 µM), morphine-treated cells (fmol/1 × 10^3 cells) stood at 38.9; the intracellular cAMP level, Forskolin + DAMGO (1 µM), naive cells (fmol/1 × 10^3 cells) is 25.6. In test [11], this molecule had a low Km GTPase activity, membranes of stably transfected CHO cells, 1 µM DAMGO of 33%; a maximal inhibition of intracellular cAMP, naive transfected CHO cells of 25%; a maximal inhibition of intracellular cAMP, transfected CHO cells treated with morphine for 24 hr of 60%. The molecule also yielded a Kd in [12] of 1 nM. The same molecule registered a decrease of specific labelling by GTPgS in test [13] of 55%. Moreover, the decrease of specific labelling by GTPgS in [14] is 65%. In test [15], the Bmax (fmol/mg membrane protein) was 630 and the equilibrium dissociation constant (Kd) was determined as 0.47 nM. Moreover, the Bmax (fmol/mg membrane protein) in test [16] was found to be 381. In addition, the decrease of labelling after PTX-pretreatment in test [17] was 42%. Also, the decrease of labelling after PTX-pretreatment in test [18] was determined as 79%. The Ki in test [19] was 2.8 nM. In test [20], the Bmax turned out to be 232 fmol/mg and the equilibrium dissociation constant (Kd) was 1 nM. The same molecule registered a specific binding in test [21] of 1 fmol/oocyte.

For [D-Pen^2,5]-enkephalin (peptide), the IC50 in test [22] was above 1000 nM.

On to cyclic somatostatin (peptide), for which the IC50 in [19] is 11000 nM.

YGGFMTSEKSQTPLVTLFKNAIIKNAYKKGE (peptide, UniProt P01189 237-267, looked up, mature) [β-endorphin]: the Ki in test [23] amounted to 1.7 nM.

Molecule AGCKNFFWKTFTSC (peptide, UniProt P61278 103-116, looked up, mature) [Somatostatin-1-14] showed a half-maximal inhibitory concentration (IC50) in [19] of 730000 nM.

As usually defined, the Kd is a measure of binding affinity in units of concentration. Higher therefore signals a looser complex. As usually defined, the IC50 is the concentration that gives 50% inhibition. A higher IC50 goes with weaker potency in that assay.
